Results from patent publication US20250215100A1 (HARBOUR BIOMED SHANGHAI, published 2025).
Changes are numbered by the printed parent chain. In names and notes the source's numbering stands. Where two headings read alike, the source gives them in different places.

B1: PR003379 (antibody, human IgG2, kappa)
heavy: QVQLVQSGAEVKKPGASVKVSCKASGYTFAGYYMYWVRQAPGQGLEWMGWINPDSGAPTYAQKFQGRVTMTRDTSISTAYMELSRLRSDDTAVYYCAREKIYYGSGNYYPSFDYWGQGTLVTVSSASTKGPSVFPLAPCSRSTSESTAALGCLVKDYFPEPVTVSWNSGALTSGVHTFPAVLQSSGLYSLSSVVTVPSSNFGTQTYTCNVDHKPSNTKVDKTVERKCCVECPPCPAPPVAGPSVFLFPPKPKDTLMISRTPEVTCVVVDVSHEDPEVQFNWYVDGVEVHNAKTKPREEQFNSTFRVVSVLTVVHQDWLNGKEYKCKVSNKGLPAPIEKTISKTKGQPREPQVYTLPPSREEMTKNQVSLTCLVKGFYPSDIAVEWESNGQPENNYKTTPPMLDSDGSFFLYSKLTVDKSRWQQGNVFSCSVMHEALHNHYTQKSLSLSPGK
light: DIQLTQSPSFLSASVGDRVTITCRASQGISSYLAWYQQKPGKAPKLLIYAASTLQSGVPSRFSGSGSGTEFTLTISSLQPEDFATYYCQQLNSYPWTFGQGTKVEIKRTVAAPSVFIFPPSDEQLKSGTASVVCLLNNFYPREAKVQWKVDNALQSGNSQESVTEQDSKDSTYSLSSTLTLSKADYEKHKVYACEVTHQGLSSPVTKSFNRGEC
notes: Fully human recombinant IgG2, kappa light chain; from Harbour H2L2 mice; also called 18C4A12-1B1 (clone No.)
B2: PR001304 (APX005M) (antibody, human IgG1, kappa)
heavy: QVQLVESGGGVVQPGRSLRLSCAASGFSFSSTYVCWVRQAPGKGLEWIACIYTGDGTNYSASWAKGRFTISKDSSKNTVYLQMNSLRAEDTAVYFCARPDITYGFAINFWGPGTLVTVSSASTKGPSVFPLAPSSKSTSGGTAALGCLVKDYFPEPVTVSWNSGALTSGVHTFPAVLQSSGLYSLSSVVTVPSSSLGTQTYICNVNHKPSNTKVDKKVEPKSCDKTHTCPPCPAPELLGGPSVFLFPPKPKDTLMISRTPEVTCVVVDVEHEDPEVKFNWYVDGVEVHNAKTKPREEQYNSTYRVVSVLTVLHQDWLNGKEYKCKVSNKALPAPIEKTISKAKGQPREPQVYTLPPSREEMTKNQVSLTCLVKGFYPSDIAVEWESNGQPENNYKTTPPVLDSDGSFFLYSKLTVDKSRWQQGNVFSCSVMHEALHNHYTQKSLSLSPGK
light: DIQMTQSPSSLSASVGDRVTIKCQASQSISSRLAWYQQKPGKPPKLLIYRASTLASGVPSRFSGSGSGTDFTLTISSLQPEDVATYYCQCTGYGISWPIGGGTKVEIKRTVAAPSVFIFPPSDEQLKSGTASVVCLLNNFYPREAKVQWKVDNALQSGNSQESVTEQDSKDSTYSLSSTLTLSKADYEKHKVYACEVTHQGLSSPVTKSFNRGEC
notes: CD40 positive control antibody
B3: PR001028 (Selicrelumab) (antibody, human IgG2, kappa, V domains shown)
VH: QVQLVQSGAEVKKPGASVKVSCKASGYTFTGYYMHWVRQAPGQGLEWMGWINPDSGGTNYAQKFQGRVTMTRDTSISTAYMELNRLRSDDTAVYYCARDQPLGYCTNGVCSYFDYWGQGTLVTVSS
VL: DIQMTQSPSSVSASVGDRVTITCRASQGIYSWLAWYQQKPGKAPNLLIYTASTLQSGVPSRFSGSGSGTDFTLTISSLQPEDFATYYCQQANIFPLTFGGGTKVEIKR
notes: as for B2
B4: PR006510 (antibody, human IgG1, kappa, V domains shown)
VH: QVQLVQSGAEVKKPGASVKVSCKASGYTFAGYYMYWVRQAPGQGLEWMGWINPDSGAPTYAQKFQGRVTMTRDTSISTAYMELSRLRSDDTAVYYCAREKIYYGSGNYYPSFDYWGQGTLVTVSS
VL: DIQLTQSPSFLSASVGDRVTITCRASQGISSYLAWYQQKPGKAPKLLIYAASTLQSGVPSRFSGSGSGTEFTLTISSLQPEDFATYYCQQLNRYPWTFGQGTKVEIKR
notes: PR003379 variant L:S93R; human IgG1 L234A, L235A, G237A
B5: PR006511 (antibody, human IgG1, kappa, V domains shown)
VH: B4 VH
VL: B4 VL with R93N
notes: PR003379 variant L:S93N; human IgG1 L234A, L235A, G237A
B6: PR006515 (antibody, human IgG1, kappa, V domains shown)
VH: B4 VH
VL: B4 VL with R93M
notes: PR003379 variant L:S93M; human IgG1 L234A, L235A, G237A

What was measured:
[1] = target: T1, human CD40 on cells (human, UniProt P25942 21-277); experiment: FACS, inhibition of human CD40L-his binding to CHO-K1/hCD40 cells
T1 construct: whole, on cells; The cell line used is named in each row's assay; also called hCD40; TNFRSF5
T1 sequence (P25942 21-277): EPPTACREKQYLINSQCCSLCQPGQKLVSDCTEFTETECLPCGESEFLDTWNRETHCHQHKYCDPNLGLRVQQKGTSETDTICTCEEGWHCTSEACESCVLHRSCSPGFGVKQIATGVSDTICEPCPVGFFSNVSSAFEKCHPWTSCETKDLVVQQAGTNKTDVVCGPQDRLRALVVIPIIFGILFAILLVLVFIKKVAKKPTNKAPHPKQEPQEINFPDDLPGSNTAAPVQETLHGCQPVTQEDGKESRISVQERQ
Method: To detect the effect of CD40 antibodies on the binding of CD40 to CD40L, CHO-K1/hCD40 cells were plated at 2×10⁵/well or 100 μL/well into a 96-well plate (Corning, #3799) and centrifuged, and the supernatant was taken and the dilution solution of the antigen binding protein to be tested was added at 50 μL/well with an initial concentration of 500 nM, 5-fold concentration dilution and a total of 8 concentrations. 20 μg/mL of human CD40L-his protein (Sino biological, #10239-H08E) was added at 50 μL/well, the cells were incubated at 4° C. for 1 hour and then washed 3 times with FACS buffer (1×PBS with 2% FBS). 1:400 diluted anti-histidine tag secondary antibody (GenScript, #A01800) was added, and the cells were incubated at 4° C. for 1 hour, then washed 2 times with FACS buffer, and resuspended in pre-chilled PBS. The fluorescence signal values were read using a BD FACS CANTOII flow cytometer or ACEA NovoCyte flow cytometer, and the data were processed and analyzed using FlowJo v10 software (FlowJo, LLC).
Data processing and graphical analysis were performed using GraphPad Prism 8 software. The curve of the antibody concentration-dependent inhibition rate and parameters, such as IC50 value were obtained by four-parameter nonlinear fitting.

[2] = target: T2, human CD40 protein (human, UniProt P25942 21-193, limits assumed); experiment: BLI (Octet Red 96e), antibody captured on AHC sensor, human CD40 protein in solution, 1:1 global fit
T2 construct: the construct is not described
T2 sequence (P25942 21-193 limits assumed): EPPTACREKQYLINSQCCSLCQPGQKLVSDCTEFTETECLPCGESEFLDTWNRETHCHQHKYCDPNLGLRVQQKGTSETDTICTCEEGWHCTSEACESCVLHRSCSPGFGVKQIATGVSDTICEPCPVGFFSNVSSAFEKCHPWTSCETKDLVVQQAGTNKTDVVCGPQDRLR
Method: To detect the affinity of CD40 antibodies for antigens such as human CD40 protein, the binding kinetics between antigen and antibody was analyzed using an Octet Red 96e (Fortebio) molecular interaction analyzer by biolayer interferometry (BLI) technique.
For determining the affinity of antibodies for antigens, the rotary speed of the sensor was set at 1000 rpm. […] The AHC sensors were finally regenerated by immersing in a 10 mM glycine-hydrochloric acid solution with pH 1.5 to elute the protein bound to the sensors.
For data analysis using Octet Data Analysis software (Fortebio, version 11.0), 0 nM well was used as the reference well, reference subtraction was performed, “1:1 Global fitting” method was selected for data fitting, the kinetic parameters of the binding of the antigen to the CD40 antibodies were calculated, and the kon (1/Ms) value, kdis (1/s) value and KD (M) value were obtained.

[3] = target: T1, human CD40 on cells; experiment: cell-based or functional assay
[4] = target: T1, human CD40 on cells; experiment: FACS, CHO-K1/hCD40 cells
Source text: (§1) Flow cytometry (FACS) was used to detect the binding ability of the CD40 antibody to cells, such as, CHO-K1/hCD40 highly expressing human CD40 (constructed by Beijing Kyinno Biotechnology), CHO-K1/cyCD40 highly expressing cynomolgus monkey CD40 (constructed by Beijing Kyinno Biotechnology) and lymphoma cell highly expressing human CD40, Raji (ATCC, #CCL-86). Specifically, the cells were digested and resuspended with complete medium (F-12K for CHO-K1 cells; and RPMI-1640 for Raji cells); and the cells were adjusted to a cell density of 1×10⁶ cells/mL. The cells were seeded in a 96-well V-bottom plate (Corning, #3894) at 100 μL/well, and the antigen binding protein to be tested at 2x final concentration was then added at 100 μL/well and mixed evenly, with the highest final concentration of the antigen binding protein of 300 nM, a total of 8 concentrations, and 5-fold concentration gradient dilution. hIgG (Crownbio, #C0002) was used as a negative control, and the positive control molecule was the molecule in Table 1-5. The cells were incubated at 4° C. for 1 hours in the dark. After the incubation, the cells were rinsed twice by adding pre-chilled PBS at 100 μL/well, and centrifuged at 500 g at 4° C. for 5 minutes, and the supernatant was discarded. Then, a fluorescent secondary antibody (goat anti-human IgG (H+L) secondary antibody, Alexa Fluor® 488 conjugate, Invitrogen, #A11013, 1:1000 dilution) was added at 100 µL/well, and the cells were incubated at 4° C. for 30 minutes in the dark. The cells were washed twice with pre-chilled PBS at 200 μL/well, and centrifuged at 500 g at 4° C. for 5 minutes, and the supernatant was discarded. Finally, the cells were resuspended in pre-chilled PBS at 200 μL/well. The fluorescence signal values were read using a BD FACS CANTOII flow cytometer or ACEA NovoCyte flow cytometer, and the data were processed and analyzed using FlowJo v10 software (FlowJo, LLC).
(§2) Data processing and graphical analysis were performed using GraphPad Prism 8 software. The binding curve of the antibody to the target cell and parameters, such as EC50 value were obtained by four-parameter nonlinear fitting.

[5] = target: T1, human CD40 on cells; experiment: FACS, Raji cells
Source text: as §1, §2

[6] = target: T3, cynomolgus monkey CD40 on cells (cynomolgus monkey, UniProt G7PG38 21-278); experiment: FACS, CHO-K1/cyCD40 cells
T3 construct: also called cyCD40; CHO-K1/cyCD40
T3 sequence (G7PG38 entry or part of it limits assumed): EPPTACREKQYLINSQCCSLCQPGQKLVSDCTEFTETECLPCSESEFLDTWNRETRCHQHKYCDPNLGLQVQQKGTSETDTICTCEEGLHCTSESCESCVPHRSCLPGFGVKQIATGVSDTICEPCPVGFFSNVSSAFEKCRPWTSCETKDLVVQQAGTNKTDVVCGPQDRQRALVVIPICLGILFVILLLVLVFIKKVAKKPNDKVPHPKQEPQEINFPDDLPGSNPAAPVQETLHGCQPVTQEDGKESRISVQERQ
Source text: as §1, §2

[7] = target: T1, human CD40 on cells; experiment: cell-based or functional assay; remark: listed apart in the source

Row | Binder | IC50 [1] [nM] | Kd [2] [nM] | koff [2] [s⁻¹] | kon [2] [M⁻¹ s⁻¹] | EC50 (nM), crosslinked (CHO-K1/hCD32B), HEK293-hCD40-NFkB reporter [3] [nM] | EC50 (nM), uncrosslinked, HEK293-hCD40-NFkB reporter [3] [nM] | Maximum RLU, crosslinked (CHO-K1/hCD32B), HEK293-hCD40-NFkB reporter [3] [RLU] | Maximum RLU, uncrosslinked, HEK293-hCD40-NFkB reporter [3] [RLU] | RLU fold (crosslinked/uncrosslinked) [3] [fold] | EC50 [4] [nM] | Maximum MFI [4] [MFI] | EC50 [5] [nM] | Maximum MFI [5] [MFI] | EC50 [6] [nM] | Maximum MFI [6] [MFI] | EC50 (nM), crosslinked, HEK293-hCD40-NFkB reporter [7] [nM] | EC50 (nM), uncrosslinked, HEK293-hCD40-NFkB reporter [7] [nM] | Fold (EC50 in the absence of crosslinking/EC50 in the presence of crosslinking) [7] [fold] | Maximum fold (fold), crosslinked [7] [fold] | Maximum fold (fold), uncrosslinked [7] [fold] | other results
1 | B1 | 17 | 0.138 | 0.000144 | 1.04e+06 | 0.178 | 0.369 | 19700 | 8250 | 2.38 | 6.34 | 81600 | 0.0699 | 3700 | 3.88 | 117000 | – | – | – | – | – | Maximum inhibition rate (%) [1]: 41.9%
2 | B2 | 10 | 7.14 | 0.00264 | 369000 | 0.042 | 0.355 | 23200 | 11900 | 1.95 | – | – | – | – | – | – | – | – | – | – | – | Maximum inhibition rate (%) [1]: 26%
3 | B3 | – | 4.5 | 0.00048 | 107000 | 0.0413 | 0.163 | 17000 | 13400 | 1.28 | 10.3 | 85000 | 0.484 | 2450 | 5.97 | 106000 | – | – | – | – | – | –
4 | B4 | – | – | – | – | – | – | – | – | – | 4.98 | 83000 | 0.376 | 12400 | 4.55 | 44300 | 0.0423 | 0.125 | 2.96 | 4.66 | 4.54 | –
5 | B5 | – | – | – | – | – | – | – | – | – | 4.99 | 79400 | 0.386 | 11800 | 3.68 | 40300 | 0.16 | 0.815 | 5.1 | 5.19 | 4.5 | –
6 | B6 | – | – | – | – | – | – | – | – | – | 4.59 | 86300 | 0.322 | 8900 | 3.75 | 50600 | 0.0669 | 0.268 | 4.01 | 4.91 | 4.54 | –
